Earlier results in PMC8508939.
pKd: −log10 of the molar value.

Target: FoxP1 forkhead domain (Homo sapiens) (UniProt Q9H334)

In the case of “FoxP1 forkhead domain (from UniProt Q9H334)”, the pKd is listed as 4.57.
